Reference: article PMC6247239 (Protein Science : A Publication of the Protein Society, 2018)
One block for each molecule: values may come before it.

T1: FtsA (Escherichia coli, UniProt P0ABH0 1-420)
T1 sequence: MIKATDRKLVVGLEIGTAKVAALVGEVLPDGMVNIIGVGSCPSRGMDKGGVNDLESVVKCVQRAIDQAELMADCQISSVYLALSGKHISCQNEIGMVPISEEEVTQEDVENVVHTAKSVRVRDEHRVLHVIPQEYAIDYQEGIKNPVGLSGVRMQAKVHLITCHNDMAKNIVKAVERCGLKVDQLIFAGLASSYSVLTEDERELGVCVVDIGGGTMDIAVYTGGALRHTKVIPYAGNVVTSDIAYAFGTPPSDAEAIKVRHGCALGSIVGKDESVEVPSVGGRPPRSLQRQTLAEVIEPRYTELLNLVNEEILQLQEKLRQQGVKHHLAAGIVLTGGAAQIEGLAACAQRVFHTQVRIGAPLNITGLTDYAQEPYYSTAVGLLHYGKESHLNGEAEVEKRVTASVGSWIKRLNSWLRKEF

B1: human glutathione transferase M1a-1a (enzyme)
chain: MPMILGYWDIRGLAHAIRLLLEYTDSSYEEKKYTMGDAPDYDRSQWLNEKFKLGLDFPNLPYLIDGAHKITQSNAILCYIARKHNLCGETEEEKIRVDILENQTMDNHMQLGMICYNPEFEKLKPKYLEELPEKLKLYSEFLGKRPWFAGNKITFVDFLVYDVLDLHRIFEPKCLDAFPNLKDFISRFEGLEKISAYMKSSRFLPRPVFSKMAVWGNK
B2: SNX16 PX-CC unit (domain or fragment)
chain: DRPSTPTILGYEVMEERAKFTVYKILVKKTPEESWVVFRRYTDFSRLNDKLKEMFPGFRLALPPKRWFKDNYNADFLEDRQLGLQAFLQNLVAHKDIANCLAVREFLCLDDPPGPFDSLEESRAFCETLEETNYRLQKELLEKQKEMESLKKLLSEKQLHIDTLENRIRTLSLEPEESLDVSETEGEQILKVESSALEVDQDVLDEESRADNKPCLSFSEPENAVSEIEVAEVAYDAEED
B3: FtsZ (natural protein)
chain: MFEPMELTNDAVIKVIGVGGGGGNAVEHMVRERIEGVEFFAVNTDAQALRKTAVGQTIQIGSGITKGLGAGANPEVGRNAADEDRDALRAALEGADMVFIAAGMGGGTGTGAAPVVAEVAKDLGILTVAVVTKPFNFEGKKRMAFAEQGITELSKHVDSLITIPNDKLLKVLGRGISLLDAFGAANDVLKGAVQGIAELITRPGLMNVDFADVRTVMSEMGYAMMGSGVASGEDRAEEAAEMAISSPLLEDIDLSGARGVLVNITAGFDLRLDEFETVGNTIRAFASDNATVVIGTSLDPDMNDELRVTVVATGIGMDKRPEITLVTNKQVQQPVMDRYQQHGMAPLTQEQKPVAKVVNDNAPQTAKEPDYLDIPAFLRKQAD
B4: MinC (natural protein)
chain: MSNTPIELKGSSFTLSVVHLHEAEPKVIHQALEDKIAQAPAFLKHAPVVLNVSALEDPVNWSAMHKAVSATGLRVIGVSGCKDAQLKAEIEKMGLPILTEGKEKAPRPAPTPQAPAQNTTPVTKTRLIDTPVRSGQRIYAPQCDLIVTSHVSAGAELIADGNIHVYGMMRGRALAGASGDRETQIFCTNLMAELVSIAGEYWLSDQIPAEFYGKAARLQLVENALTVQPLN

What was measured:
[1] = target: procaspase-2 phosphorylated at S139 and S164 (human) (UniProt P42575); experiment: fluorescence polarisation + native gel or EMSA + SEC + AUC
[2] = target: BECN1 coiled-coil domain (Homo sapiens) (UniProt Q14457); settings: cited from earlier work
[3] = target: PBP2a (Staphylococcus aureus (MRSA))
[4] = target: Beclin-1 lacking the BARA domain (human)
Ras = Ras (UniProt P01112)
[5] = target: radical-generating subunit of the class I ribonucleotide reductase of Leeuwenhoekiella blandensis (Leeuwenhoekiella blandensis); experiment: multi-detection SEC, GEMMA, DLS
[6] = target: the molecule itself; experiment: SEC + other: dynamic light scattering, HDX-MS, spectroscopy
crystal structure = target: the molecule itself; experiment: crystal structure
FtsA = target: T1, FtsA; experiment: co-sedimentation
FtsZ = target: B3; experiment: co-sedimentation

Chain of procaspase-2 phosphorylated at S139 and S164 (human) (P42575 whole entry, the tested form may be a part): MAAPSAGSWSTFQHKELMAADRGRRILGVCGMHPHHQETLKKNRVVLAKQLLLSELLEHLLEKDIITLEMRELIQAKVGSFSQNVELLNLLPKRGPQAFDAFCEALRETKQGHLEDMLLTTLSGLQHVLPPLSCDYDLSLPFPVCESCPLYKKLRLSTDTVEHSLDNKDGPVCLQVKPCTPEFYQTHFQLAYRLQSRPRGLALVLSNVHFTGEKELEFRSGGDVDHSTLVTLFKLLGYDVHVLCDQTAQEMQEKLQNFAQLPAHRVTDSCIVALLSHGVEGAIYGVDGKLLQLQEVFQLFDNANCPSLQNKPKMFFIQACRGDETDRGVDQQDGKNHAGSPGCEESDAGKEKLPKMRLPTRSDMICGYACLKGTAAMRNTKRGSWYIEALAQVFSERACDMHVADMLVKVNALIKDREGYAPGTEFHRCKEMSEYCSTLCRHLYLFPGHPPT

- stoichiometry N [1]: 1
Molecule: 14-3-3 protein (from UniProt P63104 1-245) (natural protein)

Molecule: BECN1 coiled-coil domain (from UniProt Q14457)
- Kd [2]: 48 µM

Molecule: BLIP-II N50A:Y113H (natural protein)
- Kd [3]: 0.05 µM

- fold weaker homodimer KD than the full-length protein [4]: 3.5 fold
Molecule: Beclin-1 lacking the BARA domain (domain or fragment)

- percent of the Ras population forming dimers (Ras): < 10%
Molecule: Ras (from UniProt P01112 1-189) (natural protein)

- stoichiometry N [5]: 4
Molecule: radical-generating subunit of the class I ribonucleotide reductase of Leeuwenhoekiella blandensis (enzyme)

Molecule: B1
- stoichiometry N [6]: 2

Molecule: B2
- stoichiometry N (crystal structure): 2

Molecule: B3
- binding result (FtsA): binds

Molecule: B4
- binding result (FtsZ): binds
